The values below come from patent US20200317779A1.

The target in experiment [1] is recombinant cynomolgus monkey CD3ε/δ heterodimer (cynomolgus monkey) (UniProt Q95LI5). Briefly: ELISA, coated CD3ε/δ. (In general: ELISA stands for enzyme-linked immunosorbent assay.)
Experiment [2] has as its target recombinant human CD3ε/δ heterodimer (human) (UniProt P07766). Briefly: ELISA, coated CD3ε/δ.
Experiment [3] deals with recombinant cynomolgus monkey CD3ε/δ heterodimer (cynomolgus monkey) (UniProt Q95LI5). Nature of the experiment: BLI (Octet), antigen on anti-Penta His sensor, antibody 50 nM. On the technique in general: Biolayer interferometry detects binding as a change in optical thickness at a sensor tip.
In experiment [4] the target is recombinant human CD3ε/δ heterodimer (human) (UniProt P07766). Described as above.
Chain of recombinant human CD3ε/δ heterodimer (human) (P07766 23-126, stated change not applied, chain 1 of 2): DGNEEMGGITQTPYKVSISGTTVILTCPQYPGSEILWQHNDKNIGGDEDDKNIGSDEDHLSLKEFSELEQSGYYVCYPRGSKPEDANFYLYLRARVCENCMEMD
Chain of recombinant human CD3ε/δ heterodimer (human) (P04234 22-105, stated change not applied, chain 2 of 2, further chain): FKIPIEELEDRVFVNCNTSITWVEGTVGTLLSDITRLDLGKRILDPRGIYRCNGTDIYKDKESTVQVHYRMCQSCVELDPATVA

Chain of recombinant cynomolgus monkey CD3ε/δ heterodimer (cynomolgus monkey) (Q95LI5 22-117, stated change not applied, chain 1 of 2): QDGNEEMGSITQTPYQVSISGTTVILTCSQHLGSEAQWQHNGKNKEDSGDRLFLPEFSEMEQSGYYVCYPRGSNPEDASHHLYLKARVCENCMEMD
Chain of recombinant cynomolgus monkey CD3ε/δ heterodimer (cynomolgus monkey) (Q95LI8 22-105, stated change not applied, chain 2 of 2, further chain): as the sequence (P04234 22-105, stated change not applied, chain 2 of 2, further chain) above, with I5V, N15K, I20V, S32T, D33N, I34N, T64A, S74N, V83L counted along it

B1: H16 (antibody, human IgG1, lambda, L234A L235A, V domains shown)
VH: EVQLVESGGGLVQPGGSLKLSCAASGFTFNTYAMNWVRQASGKGLEWVARIRSKYNNYATYYADSVKDRFTISRDDSQSTLYLQMNSLKTEDTAVYYCVRHGNFGNSYVSWFAYWGQGTLVTVSS
VL: QAVVTQEPSLTVSPGGTVTLTCRSSTGAVTTSNYANWVQQKPGQAPRGLIGGTNKRAPWTPARFSGSLLGDKAALTLSGAQPEDEAEYYCALWYSNLWVFGGGTKLTVLG
For orientation: Kd means the concentration at which binding is half-saturated. The koff is the first-order rate constant of dissociation. A word on the kon: it is the rate constant with which the complex forms. On to B1, for which the figures for the Absorbance (450 nm) in experiment [1] and in experiment [2] were 2.87 and 2.46, respectively. The equilibrium dissociation constant (Kd) in experiment [3] worked out at 1.13 nM; in experiment [4], 0.881 nM. The off-rate (koff) in experiment [3] turned out to be 0.000206 s⁻¹; in experiment [4], 0.00012 s⁻¹. The results for the kon in experiment [3] and in experiment [4] were 182000 M⁻¹ s⁻¹ and 136000 M⁻¹ s⁻¹, respectively.

B2: B07 (antibody, human IgG1, lambda, L234A L235A, V domains shown)
VH: EVQLVESGGGLVQPGGSLKLSCAASGFTFNTYAMNWVRQASGKGLEWVGRIRSKYNNYATYYADSVKDRFTISRDDSKNTLYLQMNSLKTEDTAVYYCVRHGNFGNSYVSWFAYWGQGTLVTVSS
VL: QAVVTQEPSLTVSPGGTVTLTCRSSTGAVTTSNYANWFQQKPGQAPRGLIGGTNKRAPWTPARFSGSLLGGKAALTLSGAQPEDEAEYYCALWYSNLWVFGGGTKLTVLG
Take B2: the values for the Absorbance (450 nm) in experiment [1] and in experiment [2] were 2.45 and 0.718, respectively. Moreover, the dissociation constant (Kd) in experiment [3] was determined as 30.9 nM; in experiment [4], 21.4 nM. Also, the off-rate (koff) is 0.00642 s⁻¹ in experiment [3] and 0.00423 s⁻¹ in experiment [4]. The association rate constant (kon) in experiment [3] was 208000 M⁻¹ s⁻¹; in experiment [4], 198000 M⁻¹ s⁻¹.

B3: B08 (antibody, human IgG1, lambda, L234A L235A, V domains shown)
VH: EVQLVESGGGLVQPGGSLKLSCAASGFTFNTYAMNWVRQASGKGLEWVGRIRSKYNNYATYYADSVKDRFTISRDDSKNTLYLQMNSLKTEDTAVYYCVRHGNFGNSYVSWFAYWGQGTLVTVSS
VL: QAVVTQEPSLTVSPGGTVTLTCRSSTGAVTTSNYANWFQQKPGQAPRGLIGGTNKRAPWTPARFSGSLLGDKAALTLSGAQPEDEAEYYCALWYSNLWVFGGGTKLTVLG
As to B3, the Absorbance (450 nm) in experiment [1] amounted to 2.19. For the same molecule, in experiment [2], the Absorbance (450 nm) was found to be 0.424. Also, in experiment [3], the Kd was found to be 26.3 nM, the koff came out at 0.00525 s⁻¹ and the kon stood at 199000 M⁻¹ s⁻¹. In experiment [4], the Kd came out at 27.6 nM, the koff was 0.00407 s⁻¹ and the association rate constant (kon) is 148000 M⁻¹ s⁻¹.

B4: B16 (antibody, human IgG1, lambda, L234A L235A, V domains shown)
VH: EVQLVESGGGLVQPGGSLKLSCAASGFTFNTYAMNWVRQASGKGLEWVGRIRSKYNNYATYYADSVKDRFTISRDDSKNTLYLQMNSLKTEDTAVYYCVRHGNFGNSYVSWFAYWGQGTLVTVSS
VL: QAVVTQEPSLTVSPGGTVTLTCRSSTGAVTTSNYANWVQQKPGQAPRGLIGGTNKRAPWTPARFSGSLLGDKAALTLSGAQPEDEAEYYCALWYSNLWVFGGGTKLTVLG
Consider B4, for which the Absorbance (450 nm) in experiment [1] came out at 2.93. In addition, in experiment [2], the Absorbance (450 nm) is 2.37. For the same molecule, in experiment [3], the Kd was 0.66 nM, the koff worked out at 0.000308 s⁻¹ and the on-rate constant (kon) was 466000 M⁻¹ s⁻¹. Also, in experiment [4], the Kd turned out to be 0.445 nM, the off-rate (koff) was 0.000144 s⁻¹ and the kon worked out at 322000 M⁻¹ s⁻¹.

B5: B15 (antibody, human IgG1, lambda, L234A L235A, V domains shown)
VH: EVQLVESGGGLVQPGGSLKLSCAASGFTFNTYAMNWVRQASGKGLEWVGRIRSKYNNYATYYADSVKDRFTISRDDSKNTLYLQMNSLKTEDTAVYYCVRHGNFGNSYVSWFAYWGQGTLVTVSS
VL: QAVVTQEPSLTVSPGGTVTLTCRSSTGAVTTSNYANWVQQKPGQAPRGLIGGTNKRAPWTPARFSGSLLGGKAALTLSGAQPEDEAEYYCALWYSNLWVFGGGTKLTVLG
For the molecule B5, the Absorbance (450 nm) in experiment [1] stood at 3.16; in experiment [2], 2.71. In addition, the figures for the Kd in experiment [3] and in experiment [4] were 0.627 nM and 0.521 nM, respectively. The koff in experiment [3] amounted to 0.000328 s⁻¹; in experiment [4], 0.000193 s⁻¹. For the same molecule, the values for the kon in experiment [3] and in experiment [4] were 523000 M⁻¹ s⁻¹ and 371000 M⁻¹ s⁻¹, respectively.

B6: A15 (antibody, human IgG1, lambda, L234A L235A, V domains shown)
VH: EVQLVESGGGLVQPGGSLKLSCAASGFTFNTYAMNWVRQASGKGLEWVGRIRSKYNNYATYYADSVKDRFTISRDDSKNTAYLQMNSLKTEDTAVYYCVRHGNFGNSYVSWFAYWGQGTLVTVSS
VL: QAVVTQEPSLTVSPGGTVTLTCRSSTGAVTTSNYANWVQQKPGQAPRGLIGGTNKRAPWTPARFSGSLLGGKAALTLSGAQPEDEAEYYCALWYSNLWVFGGGTKLTVLG
Regarding B6, in experiment [1], the Absorbance (450 nm) is 2.86. In addition, the Absorbance (450 nm) in experiment [2] was determined as 2.79. In addition, in experiment [3], the Kd is 0.364 nM, the koff amounted to 0.000165 s⁻¹ and the kon worked out at 453000 M⁻¹ s⁻¹. For the same molecule, in experiment [4], the Kd amounted to 0.296 nM, the off-rate constant (koff) was found to be 9.58e-05 s⁻¹ and the kon was found to be 323000 M⁻¹ s⁻¹.

B7: A16 (antibody, human IgG1, lambda, L234A L235A, V domains shown)
VH: EVQLVESGGGLVQPGGSLKLSCAASGFTFNTYAMNWVRQASGKGLEWVGRIRSKYNNYATYYADSVKDRFTISRDDSKNTAYLQMNSLKTEDTAVYYCVRHGNFGNSYVSWFAYWGQGTLVTVSS
VL: QAVVTQEPSLTVSPGGTVTLTCRSSTGAVTTSNYANWVQQKPGQAPRGLIGGTNKRAPWTPARFSGSLLGDKAALTLSGAQPEDEAEYYCALWYSNLWVFGGGTKLTVLG
For the molecule B7, in experiment [1], the Absorbance (450 nm) amounted to 2.8. Besides, the Absorbance (450 nm) in experiment [2] was 2.54. For the same molecule, in experiment [3], the Kd was 0.657 nM, the koff was found to be 0.000243 s⁻¹ and the association rate constant (kon) stood at 370000 M⁻¹ s⁻¹. For the same molecule, in experiment [4], the Kd came to 0.293 nM, the koff came to 8.07e-05 s⁻¹ and the kon was 275000 M⁻¹ s⁻¹.
